Measured values as given in US20060263381A1.

Target: HLA-A*0201 molecule (human)
Assay: T2 cells loaded with 100 µM peptide, Brefeldin A, flow cytometry with BB7.2 at 0-8 h
Conditions: remark: other sources report otherwise

DC50 (time for loss of 50% of the complexes): < 2 h
Binder: YEFLWGPRA [p262 (…)]
